Laboratory results published in PMC11480844.

B1: H2-Kb / G6 (parent)
chain 1: AQSVTQPDARVTVSEGASLQLRCKYSYFGTPYLFWYVQYPRQGLQLLLKYYPGDPVVQGVNGFEAEFSKSNSSFHLRKASVHWSDWAVYFCAVTPGGSNAKLTFGKGTKLSVKS
chain 2: NSGVVQSPRYIIKGKGERSILKCIPISGHLSVAWYQQTQGQELKFFIQHYDKMERDKGNLPSRFSVQQFDDYHSEMNMSALELEDSAVYFCASSRQGGDNNQAPLFGEGTRLSVL
chain 3: not shown
chain 4: IQKTPQIQVYSRHPPENGKPNILNCYVTQFHPPHIEIQMLKNGKKIPKVEMSDMSFSKDWSFYILAHTEFTPTETDTYACRVKHDSMAEPKTVYWDRDM
chain 5: SIINFEKL
B2: H2-Kb / B7 (parent)
chain 1: GQQVQQSPTSLVLQEGENAELQCNFSTSLNSMQWFYQRPGGSLVSVFYNPSGTKQSGRLTSTTVIKERRSSLHISSSQITDSGTYLCAMERDMGYKLTFGTGTSLLVDP
chain 2: EAAVTQSPRNKVAVTGGKVTLSCNQTNNHNNMYWYRQDTGHGLRLIHYSYGAGSTEKGDIPDGYKASRPSQENFSLILELATPSQTSVYFCASGDPGDQDTQYFGPGTRLLVL
chain 3: not shown
chain 4: B1 chain 4
chain 5: SIINFEKL

Variants of: B1
Test: % of reporter cells activated (NFAT-GFP), raw
Details: with G6; scale: % of reporter cells activated
Note: test concentration or dose not given here.

Ratio to parent: each site, then its substitutions
chain 5 K7: N 0.412 | Q 0.267 | A 1.4 | P 0.346 | F 0.189 | T 0.16 | H 0.292 | Y 0.235 | G 6.68 | S 0.963 | L 0.259 | I 0.358 | R 14.4 | V 0.235 | D 0.202 | M 0.379 | W 0.963 | C 0.272 | E 0.276
chain 5 I3: F 0.523 | K 0.276 | S 0.181 | V 1.18 | Y 0.272 | R 0.109 | T 0.284 | D 0.239 | Q 0.193 | E 0.395 | P 0.206 | G 0.226 | W 0.276 | A 0.333 | L 0.926 | M 0.465 | N 0.181 | H 0.288 | C 0.292
chain 5 F5: V 0.116 | H 0.395 | N 0.3 | E 0.424 | W 0.263 | A 0.383 | G 0.198 | P 0.272 | Q 2.04 | D 0.313 | I 0.263 | T 0.177 | L 0.959 | Y 0.576 | R 0.247 | K 0.284 | C 0.609 | M 1.34 | S 0.362
chain 5 I2: G 0.288 | Q 0.255 | K 0.551 | A 0.305 | P 0.329 | L 0.247 | H 0.259 | T 0.305 | W 0.185 | S 0.115 | N 0.321 | Y 0.284 | V 0.292 | M 0.214 | E 0.453 | R 0.16 | F 0.226 | D 0.412 | C 0.239
chain 5 L8: T 0.354 | D 0.152 | Q 0.165 | K 0.292 | C 0.251 | A 0.206 | M 0.267 | E 0.173 | S 0.086 | G 0.457 | R 0.617 | I 0.819 | V 0.56 | P 0.206 | N 0.148 | W 1.92 | Y 2.09 | F 0.218 | H 7.85
chain 5 S1: Q 0.42 | K 2.47 | I 0.909 | D 0.395 | G 0.235 | E 0.239 | A 0.65 | F 0.449 | C 0.502 | T 0.222 | Y 0.156 | L 3.02 | H 0.218 | P 1.48 | N 0.239 | R 1.64 | W 0.362 | M 0.284 | V 1.09
chain 5 E6: W 7.22 | P 0.189 | Y 0.778 | G 0.506 | C 0.21 | V 0.222 | I 0.321 | R 0.259 | D 2.75 | T 0.362 | M 0.551 | A 0.724 | Q 0.292 | H 0.494 | L 0.193 | N 0.63 | F 0.914 | K 0.226 | S 0.428
chain 5 N4: F 0.202 | W 0.148 | E 0.177 | T 0.235 | Y 0.14 | G 0.239 | R 0.255 | P 0.198 | A 0.251 | S 0.193 | V 0.193 | M 0.173 | L 0.284 | D 0.267 | K 0.42 | Q 0.128 | I 0.272 | C 0.177 | H 0.276

Variants of: B2
Test: % of reporter cells activated (NFAT-GFP), raw
Details: with B7; scale: % of reporter cells activated

Ratio to parent: each site, then its substitutions
chain 5 E6: C 1.46 | M 0.985 | G 1.45 | N 1.2 | R 1.46 | K 1.32 | L 1 | S 1.38 | H 1.65 | F 1.52 | P 1.25 | Q 0.754 | A 1.17 | D 1.43 | I 1.14
